{
  "source": "paper PMC4106346",
  "about": "“The Oligomeric States of the Purified Sigma-1 Receptor Are Stabilized by Ligands” (The Journal of Biological Chemistry, 2014)",
  "target": "GpA G83I",
  "experiment": "TOXCAT",
  "settings": "parent: est. 100; read off a plot",
  "data": [
    {"substance": "glycophorin A transmembrane control of the TOXCAT assay G83I", "values": [
      {"measurement": "response", "result": 6.3, "unit": "%GpA"}
    ]}
  ]
}
